Measured values reported in patent publication US20180344736A1 (ROCHESTER, published 2018).
Blank lines part the entries; values can stand above or below the binder they belong to.

Assays:
Parkin (endogenous) = target: T1, Parkin (endogenous) (human, UniProt O60260 1-465); assay: not told (data not shown)
T1 construct: Endogenous protein immunoprecipitated from cell lysates; also called Endogenous Parkin

Cdh1 = target: T2, Cdh1 (human, UniProt Q9UM11 1-496, limits assumed); assay: IP-immunoblot of transfected Parkin domain constructs, mitotic cells (FIG. 10A)
T2 construct: Protein in cell lysate, co-immunoprecipitation
T2 sequence (Q9UM11 whole entry, the tested form may be a part): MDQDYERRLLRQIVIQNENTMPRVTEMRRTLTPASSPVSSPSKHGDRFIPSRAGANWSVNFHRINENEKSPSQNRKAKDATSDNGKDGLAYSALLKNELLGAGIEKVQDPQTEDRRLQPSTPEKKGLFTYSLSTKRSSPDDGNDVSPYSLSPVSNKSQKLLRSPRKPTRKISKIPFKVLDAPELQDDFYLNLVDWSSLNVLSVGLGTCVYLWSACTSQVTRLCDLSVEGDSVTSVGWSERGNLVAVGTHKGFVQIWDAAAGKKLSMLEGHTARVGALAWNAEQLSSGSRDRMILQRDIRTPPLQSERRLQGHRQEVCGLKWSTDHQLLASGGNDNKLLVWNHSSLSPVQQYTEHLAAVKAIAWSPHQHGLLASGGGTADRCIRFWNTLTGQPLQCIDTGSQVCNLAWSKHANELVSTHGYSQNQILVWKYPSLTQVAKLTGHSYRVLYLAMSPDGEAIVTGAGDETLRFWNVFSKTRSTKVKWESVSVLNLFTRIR
Source text: Cells were transfected with the indicated plasmids, and mitotic cells were collected for immunoprecipitation (IP)-immunoblot analysis (right).

Cdc20 = target: T3, Cdc20 (human, UniProt Q12834 1-499); assay: IP-immunoblot of transfected cells with or without nocodazole (FIG. 9K)
T3 construct: Protein in cell lysate, co-immunoprecipitation
T3 sequence (Q12834 whole entry): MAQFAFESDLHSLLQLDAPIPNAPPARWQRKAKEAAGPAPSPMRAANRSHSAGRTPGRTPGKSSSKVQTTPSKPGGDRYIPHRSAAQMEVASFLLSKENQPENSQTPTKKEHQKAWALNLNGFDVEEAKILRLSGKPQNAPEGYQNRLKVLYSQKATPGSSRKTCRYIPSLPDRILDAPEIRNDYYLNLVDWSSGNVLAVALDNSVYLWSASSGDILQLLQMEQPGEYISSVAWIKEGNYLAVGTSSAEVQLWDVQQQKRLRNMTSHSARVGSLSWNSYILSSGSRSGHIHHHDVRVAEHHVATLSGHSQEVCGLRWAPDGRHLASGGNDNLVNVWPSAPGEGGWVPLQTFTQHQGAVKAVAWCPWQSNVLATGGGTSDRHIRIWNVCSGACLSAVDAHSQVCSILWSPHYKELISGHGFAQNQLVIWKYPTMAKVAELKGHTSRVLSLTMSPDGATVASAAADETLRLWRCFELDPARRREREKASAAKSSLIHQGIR
Procedure: (H) Cells were transfected with the indicated plasmids, and then treated with nocodazole. Cell lysates were then blotted with the indicated antibodies. […] (J and K) Cells were treated with chemical (J) or transfected with indicated constructs (K).

binding result (Parkin (endogenous)): no binding
B1: UbcH10 (enzyme, UniProt O00762 2-179, looked up)
chain: ASQNRDPAATSVAAARKGAEPSGGAARGPVGKRLQQELMTLMMSGDKGISAFPESDNLFKWVGTIHGAAGTVYEDLRYKLSLEFPSGYPYNAPTVKFLTPCYHPNVDTQGNICLDILKEKWSALYDVRTILLSIQSLLGEPNIDSPLNTHAAELWKNPTAFKKYLQETYSKQVTSQEP
notes: also called the E2 for APC/C in mitosis

binding result (Cdh1): no binding
B2: Parkin RING1 domain (other, UniProt O60260 238-293, looked up, not shown: small tags and cut ends)
chain: CITCTDVRSPVLVFQCNSRHVICLDCFHLYCVTRLNDRQFVHDPQLGYSLPCVAGC
notes: domain: RING1

binding result (Cdc20): no binding
B3: Parkin S378A (enzyme, UniProt O60260 1-465, looked up, not shown: large carriers)
chain: MIVFVRFNSSHGFPVEVDSDTSIFQLKEVVAKRQGVPADQLRVIFAGKELRNDWTVQNCDLDQQSIVHIVQRPWRKGQEMNATGGDDPRNAAGGCEREPQSLTRVDLSSSVLPGDSVGLAVILHTDSRKDSPPAGSPAGRSIYNSFYVYCKGPCQRVQPGKLRVQCSTCRQATLTLTQGPSCWDDVLIPNRMSGECQSPHCPGTSAEFFFKCGAHPTSDKETSVALHLIATNSRNITCITCTDVRSPVLVFQCNSRHVICLDCFHLYCVTRLNDRQFVHDPQLGYSLPCVAGCPNSLIKELHHFRILGEEQYNRYQQYGAEECVLQMGGVLCPRPGCGAGLLPEPDQRKVTCEGGNGLGCGFAFCRECKEAYHEGECAAVFEASGTTTQAYRVDERAAEQARWEAASKETIKKTTKPCPRCHVPVEKNGGCMHMKCPQPQCRLEWCWNCGCEWNRVCMGDHWFDV
notes: Transfected construct, IP-immunoblot with or without nocodazole
